T1: Cynomolgus IL-1α (cynomolgus, UniProt P79340 113-271, limits assumed)
T1 sequence (looked up): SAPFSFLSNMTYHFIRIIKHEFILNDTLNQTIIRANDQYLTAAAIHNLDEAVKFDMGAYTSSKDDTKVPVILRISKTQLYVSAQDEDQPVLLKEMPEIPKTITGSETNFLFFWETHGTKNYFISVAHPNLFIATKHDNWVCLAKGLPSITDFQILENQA

T2: Recombinant Human IL-1α (human, UniProt P01583 113-271)
T2 sequence (looked up): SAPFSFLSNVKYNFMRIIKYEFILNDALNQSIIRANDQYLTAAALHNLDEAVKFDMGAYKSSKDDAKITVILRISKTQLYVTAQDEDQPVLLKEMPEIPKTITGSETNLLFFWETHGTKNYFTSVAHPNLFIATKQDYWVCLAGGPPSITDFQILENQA

T3: Cynomolgus IL-1β (cynomolgus, UniProt P79182 117-268, limits assumed)
T3 sequence (looked up): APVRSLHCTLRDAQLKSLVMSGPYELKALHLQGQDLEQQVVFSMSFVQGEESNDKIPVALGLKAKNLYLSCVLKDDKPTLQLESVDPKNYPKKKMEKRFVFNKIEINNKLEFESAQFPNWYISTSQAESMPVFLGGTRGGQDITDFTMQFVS


How the values were obtained:
Recombinant Human IL-1β [1] = biological target: T4, Recombinant Human IL-1β (human, UniProt P01584 117-269); test: cell-based or functional assay
Recombinant Human IL-1β [2] = biological target: T4, Recombinant Human IL-1β; test: capture ELISA: antibody captured by anti-human Fc, biotinylated antigen titrated
Protocol: (§1) Plates were washed five times in washing buffer (PBS containing 0.05% Tween 20) and blocked for 1 hour at 25° C. with 200 μl per well superblock blocking buffer (Thermo scientific, #37515). Blocking buffer was removed, and 2 μg/ml of each antibody or DVD-Ig molecule in PBS containing 10% superblock, 0.5% Tween-20 was added to the wells at 100 μl per well and incubated at 25° C. for 1 hour. The wells were washed five times in 1×PBST, and 1 μg/ml biotinylated antigen was titrated at 1:6 serial dilutions (for a range of μg to pg in PBS containing 10% superblock, 0.05% tween 20). Each dilution of antigen was then added to the plates and incubated for 1 hour at 25° C. The wells were washed five times in 1×PBST and incubated for 1 hour at 25° C. with polyHRP streptavidin (KPL #474-3000, Gaithersburg, Md.). The wells were washed five times in 1×PBST, and 100 μl of ULTRA-TMB ELISA (Pierce, Rockford, Ill.) were added per well. Following color development the reaction was stopped with 1N HCL and absorbance at 450 nm is measured.

Recombinant Human IL-1β [3] = biological target: T4, Recombinant Human IL-1β; test: SPR (BIACORE), human antigen
Protocol: (§2) The BIACORE assay (Biacore, Inc, Piscataway, N.J.) determines the affinity of antibodies or DVD-Ig molecule with kinetic measurements of on-rate and off-rate constants. Binding of antibodies or DVD-Ig molecule to a target antigen (for example, a purified recombinant target antigen) is determined by surface plasmon resonance-based measurements with a Biacore® 1000 or 3000 instrument (Biacore® AB, Uppsala, Sweden) using running HBS-EP (10 mM HEPES [pH 7.4], 150 mM NaCl, 3 mM EDTA, and 0.005% surfactant P20) at 25° C. All chemicals are obtained from Biacore® AB (Uppsala, Sweden) or otherwise from a different source as described in the text. For example, approximately 5000 RU of goat anti-mouse IgG, (Fcγ), fragment specific polyclonal antibody (Pierce Biotechnology Inc, Rockford, Ill.) diluted in 10 mM sodium acetate (pH 4.5) is directly immobilized across a CM5 research grade biosensor chip using a standard amine coupling kit according to manufacturer's instructions and procedures at 25 μg/ml. Unreacted moieties on the biosensor surface are blocked with ethanolamine. Modified carboxymethyl dextran surface in flowcell 2 and 4 is used as a reaction surface. Unmodified carboxymethyl dextran without goat anti-mouse IgG in flow cell 1 and 3 is used as the reference surface. For kinetic analysis, rate equations derived from the 1:1 Langmuir binding model are fitted simultaneously to association and dissociation phases of all eight injections (using global fit analysis) with the use of Biaevaluation 4.0.1 software. Purified antibodies or DVD-Ig molecule are diluted in HEPES-buffered saline for capture across goat anti-mouse IgG specific reaction surfaces. Antibodies or DVD-Ig molecule to be captured as a ligand (25 μg/ml) are injected over reaction matrices at a flow rate of 5 μl/min. The association and dissociation rate constants, kₒₙ (M⁻¹s⁻¹) and koff (s⁻¹) are determined under a continuous flow rate of 25 μl/minute. Rate constants are derived by making kinetic binding measurements at different antigen concentrations ranging from 10-200 nM. The equilibrium dissociation constant (M) of the reaction between antibodies or DVD-Ig molecules and the target antigen is then calculated from the kinetic rate constants by the following formula: KD=koff/kₒₙ. Binding is recorded as a function of time and kinetic rate constants are calculated.

Cynomolgus IL-1α [4] = biological target: T1, Cynomolgus IL-1α; test: cell-based or functional assay
Recombinant Human IL-1α [5] = biological target: T2, Recombinant Human IL-1α; test: cell-based or functional assay
Recombinant Human IL-1α [6] = biological target: T2, Recombinant Human IL-1α; test: SPR (BIACORE), human antigen
Protocol: as §2

Cynomolgus IL-1β = biological target: T3, Cynomolgus IL-1β; test: cell-based or functional assay
Recombinant Human IL-1α [7] = biological target: T2, Recombinant Human IL-1α; test: capture ELISA: antibody captured by anti-human Fc, biotinylated antigen titrated
Protocol: as §1

Cynomolgus IL-1α [8] = biological target: T1, Cynomolgus IL-1α; test: SPR (BIACORE), cynomolgus antigen

Human IL-1β Neutralization Assay EC50 (IL-1 induced hIL-8, MRC-5 cells) (Recombinant Human IL-1β [1])	EC50 (Recombinant Human IL-1β [2])	Kd (Recombinant Human IL-1β [3])	koff (Recombinant Human IL-1β [3])	kon (Recombinant Human IL-1β [3])	Cyno IL-1α Neutralization Assay EC50 (IL-1 induced hIL-8, MRC-5 cells) (Cynomolgus IL-1α [4])	Human IL-1α Neutralization Assay EC50 (IL-1 induced hIL-8, MRC-5 cells) (Recombinant Human IL-1α [5])	Kd (Recombinant Human IL-1α [6])	koff (Recombinant Human IL-1α [6])	kon (Recombinant Human IL-1α [6])	Cyno IL-1β Neutralization Assay EC50 (IL-1 induced hIL-8, MRC-5 cells) (Cynomolgus IL-1β)	EC50 (Recombinant Human IL-1α [7])	Kd (Cynomolgus IL-1α [8])	koff (Cynomolgus IL-1α [8])	kon (Cynomolgus IL-1α [8])	Binder
0.15 nM	0.0399 nM	0.186 nM	0.00103 s⁻¹	5.55e+06 M⁻¹ s⁻¹											1B12.1 (antibody, human IgG1, kappa, L234A L235A, V domains shown, Parent anti-IL-1β antibody; also called 1B12.1VH; 1B12.1VL) VH: EVQLQESGPGLVKPSETLSLTCTVSGFSLSDYGVSWIRQPPGKGLEWLGLIWGGGDTYYNSPLKSRLTISKDNSKSQVSLKLSSVTAADTAVYYCAKQRTLWGYDLYGMDYWGQGTLVTVSS VL: DTQVTQSPSSLSASVGDRVTITCITSTDIDVDMNWYQQKPGKPPKLLISQGNTLRPGVPSRFSSSGSGTDFTFTISSLQPEDFATYYCLQSDNLPLTFGQGTKLEIKR
0.38 nM	0.0459 nM	0.202 nM	0.00125 s⁻¹	6.2e+06 M⁻¹ s⁻¹											1B12.6 (antibody, human IgG1, kappa, L234A L235A, V domains shown, Parent anti-IL-1β antibody; also called 1B12.6VH; 1B12.6VL) VH: EVQLVESGGGLVQPGGSLRLSCAVSGFTLSDYGVSWIRQAPGKGLEWLGLIWGGGDTYYNSPLKSRLTISKDNSKSTVYLQMNSLRAEDTAVYYCAKQRTLWGYDLYGMDYWGQGTLVTVSS VL: ETTVTQSPSSLSASVGDRVTITCITSTDIDVDMNWYQQKPGKPPKLLISQGNTLRPGVPSRFSSSGSGTDFTFTISSLQPEDFATYYCLQSDNLPLTFGQGTKLEIKR
0.3 nM	0.0438 nM	0.206 nM	0.00118 s⁻¹	5.73e+06 M⁻¹ s⁻¹											1B12.3 (antibody, human IgG1, kappa, L234A L235A, V domains shown, Parent anti-IL-1β antibody; also called 1B12.3VH; 1B12.3VL) VH: EVQLQESGPGLVKPSETLSLTCTVSGFSLSDYGVSWIRQPPGKGLEWLGLIWGGGDTYYNSPLKSRLTISKDNSKSQVSLKLSSVTAADTAVYYCAKQRTLWGYDLYGMDYWGQGTLVTVSS VL: DTVVTQSPAFLSVTPGEKVTITCITSTDIDVDMNWYQQKPDQPPKLLISQGNTLRPGVPSRFSSSGSGTDFTFTISSLEAEDAATYYCLQSDNLPLTFGQGTKLEIKR
0.0099 nM		0.0161 nM	2.65e-05 s⁻¹	1.66e+06 M⁻¹ s⁻¹	0.0626 nM	0.0538 nM	0.569 nM	3.25e-05 s⁻¹	56900 M⁻¹ s⁻¹	0.0056 nM					E26.13-SS-3D12.10/15 (bispecific antibody, human IgG1, kappa, L234A L235A, DVD-Ig, outer (N-terminal) domain anti-IL-1β, inner domain anti-IL-1α, short linkers) heavy: not shown light: DIQMTQSPSSLSASVGDRVTITCRASGNIHNYLTWYQQTPGKAPKLLIYNAKTLADGVPSRFSGSGSGTDYTFTISSLQPEDIATYYCQHFWSIPYTFGQGTKLQITRTVAAPDIQMTQSPSSLSASVGDRVTITCRASQDISNMLNWYQQKPGKTPKLLIYYTSRLYPGVPSRFSGSGSGTDYTFTISSLQPEDIATYFCQQGKTLPYAFGQGTKLEIKRTVAAPSVFIFPPSDEQLKSGTASVVCLLNNFYPREAKVQWKVDNALQSGNSQESVTEQDSKDSTYSLSSTLTLSKADYEKHKVYACEVTHQGLSSPVTKSFNRGEC
0.002 nM		0.00611 nM	7.85e-06 s⁻¹	1.28e+06 M⁻¹ s⁻¹	0.081 nM	0.0479 nM	0.403 nM	2.34e-05 s⁻¹	58100 M⁻¹ s⁻¹	0.0121 nM					E26.35-SS-3D12.10/15 (bispecific antibody, human IgG1, kappa, L234A L235A, DVD-Ig, outer domain anti-IL-1β, inner domain anti-IL-1α, short linkers) heavy: not shown light: DIQMTQSPSSLSASVGDRVTITCRASGNIHNYLTWYQQTPGKAPKLLIYNAKTLADGVPSRFSGSGSGTDYTFTISSLQPEDIATYYCQHFWSIPYTFGQGTKLQITRTVAAPDIQMTQSPSSLSASVGDRVTITCRASQDISNMLNWYQQKPGKTPKLLIYYTSRLYPGVPSRFSGSGSGTDYTFTISSLQPEDIATYFCQQGKTLPYAFGQGTKLEIKRTVAAPSVFIFPPSDEQLKSGTASVVCLLNNFYPREAKVQWKVDNALQSGNSQESVTEQDSKDSTYSLSSTLTLSKADYEKHKVYACEVTHQGLSSPVTKSFNRGEC
					0.0126 nM	0.0057 nM	0.115 nM	4.1e-05 s⁻¹	355000 M⁻¹ s⁻¹		0.007 nM	0.0578 nM	2.25e-05 s⁻¹	389000 M⁻¹ s⁻¹	3D12.10/15 (antibody, human IgG1, kappa, L234A L235A, V domains shown, Parent anti-IL-1α antibody; also called 3D12 10/15VH; 3D12 10/15VL) VH: EVQLVQSGAEVKKPGVSVKVSCKASGYTFTTYGMHWVRQAPGQGLEWMGWINTYTGESTYADDFQGRVTFTLDTSTSTAYMELSSLRSEDTAVYFCARGIYYYGSSYAMNYWGQGTTVTVSS VL: DIQMTQSPSSLSASVGDRVTITCRASQDISNMLNWYQQKPGKTPKLLIYYTSRLYPGVPSRFSGSGSGTDYTFTISSLQPEDIATYFCQQGKTLPYAFGQGTKLEIKR
					0.0008 nM	0.00056 nM	0.031 nM	2.77e-05 s⁻¹	900000 M⁻¹ s⁻¹		0.072 nM				3D12r16 (antibody, human IgG1, kappa, L234A L235A, V domains shown, Parent anti-IL-1α antibody; also called 3D12r16VH; 3D12r16VL) VH: EVQLVQSGAEVKKPGASVKVSCKASGYTFKYYGMNWVRQAPGQGLERMGWINTYTGQSTYADDFKGRVTFTLDTSTSTAYMELSSLRSEDTAVYYCARDIYYYGSDFAMDYWGQGTTVTVSS VL: DIQMTQSPSSLSASVGDRVTITCRASQDISNMLNWYQQKPGKAPKLLIYYTSRLKPGVPSRFSGSGSGTDYTFTISSLQPEDIATYFCQQGKTAPYTFGQGTKLEIKR
							1.35 nM	0.00274 s⁻¹	2.04e+06 M⁻¹ s⁻¹		0.028 nM				3D12.8 (antibody, human IgG1, kappa, L234A L235A, V domains shown, Parent anti-IL-1α antibody; also called 3D12.8VH; 3D12.8VL) VH: EIQLVQSGSELKKPGASVKVSCKASGYTFTNYGMNWVRQAPGQDLERMAWINTYTGESTYADDFKGRFVFSLDTSVSTAYLQISSLKAEDTAVYFCARGIYYYGSSYAMDYWGQGTTVTVSS VL: DIQMTQSPSSLSASVGDRVTITCRASQDISNCLNWYQQKPGKTPKLLIYYTSRLHSGVPSRFSGSGSGTDYTFTISSLQPEDIATYFCQQGKTLPYAFGQGTKLEIKR
							2.09 nM	0.00253 s⁻¹	1.21e+06 M⁻¹ s⁻¹		0.01 nM				3D12.16 (antibody, human IgG1, kappa, L234A L235A, V domains shown, Parent anti-IL-1α antibody; also called 3D12.16VH; 3D12.16VL) VH: EIQLVQSGAEVKKPGASVKVSCKASGYTFTNYGMNWVRQAPGQDLERMAWINTYTGESTYADDFKGRFTFTLDTSTSTAYMELSSLRSEDTAVYFCARGIYYYGSSYAMDYWGQGTTVTVSS VL: DIQMTQSPSSLSASVGDRVTITCRASQDISNCLNWYQQKPGKTPKLLIYYTSRLHSGVPSRFSGSGSGTDYTFTISSLQPEDIATYFCQQGKTLPYAFGQGTKLEIKR

From US20120189541A1 (AbbVie / Abbott, published 2012)
